Paper PMC4705653, “Mcm10 coordinates the timely assembly and activation of the replication fork helicase” (Nucleic Acids Research, 2015)

Target: T1, PKA-Mcm3 (radiolabeled) (budding yeast, UniProt P24279 1-971, 32P label on the PKA tag (protein kinase A with [gamma-32P]-ATP))
T1 construct: Mcm3, budding yeast; not shown: PKA tag, N-terminal, kept
Assay: pull-down; 30 pmol GST-tagged protein on Glutathione Sepharose, varying concentrations of 32P-labelled PKA-tagged protein in solution; GST binding buffer (40 mM Tris–HCl pH 7.5, 100 mM NaCl, 0.1 mM EDTA, 10% glycerol, 0.1% Triton X-100, 1 mM DTT, 0.1 mg/ml BSA), 100 μl, 30°C, 10 min; SDS-PAGE and phosphorimaging; in some panels with 5 mM ATP or ATPγS, or with a third labelled protein (Mcm10, Sld3) added
Conditions: both partners purified

T1 sequence (P24279 whole entry): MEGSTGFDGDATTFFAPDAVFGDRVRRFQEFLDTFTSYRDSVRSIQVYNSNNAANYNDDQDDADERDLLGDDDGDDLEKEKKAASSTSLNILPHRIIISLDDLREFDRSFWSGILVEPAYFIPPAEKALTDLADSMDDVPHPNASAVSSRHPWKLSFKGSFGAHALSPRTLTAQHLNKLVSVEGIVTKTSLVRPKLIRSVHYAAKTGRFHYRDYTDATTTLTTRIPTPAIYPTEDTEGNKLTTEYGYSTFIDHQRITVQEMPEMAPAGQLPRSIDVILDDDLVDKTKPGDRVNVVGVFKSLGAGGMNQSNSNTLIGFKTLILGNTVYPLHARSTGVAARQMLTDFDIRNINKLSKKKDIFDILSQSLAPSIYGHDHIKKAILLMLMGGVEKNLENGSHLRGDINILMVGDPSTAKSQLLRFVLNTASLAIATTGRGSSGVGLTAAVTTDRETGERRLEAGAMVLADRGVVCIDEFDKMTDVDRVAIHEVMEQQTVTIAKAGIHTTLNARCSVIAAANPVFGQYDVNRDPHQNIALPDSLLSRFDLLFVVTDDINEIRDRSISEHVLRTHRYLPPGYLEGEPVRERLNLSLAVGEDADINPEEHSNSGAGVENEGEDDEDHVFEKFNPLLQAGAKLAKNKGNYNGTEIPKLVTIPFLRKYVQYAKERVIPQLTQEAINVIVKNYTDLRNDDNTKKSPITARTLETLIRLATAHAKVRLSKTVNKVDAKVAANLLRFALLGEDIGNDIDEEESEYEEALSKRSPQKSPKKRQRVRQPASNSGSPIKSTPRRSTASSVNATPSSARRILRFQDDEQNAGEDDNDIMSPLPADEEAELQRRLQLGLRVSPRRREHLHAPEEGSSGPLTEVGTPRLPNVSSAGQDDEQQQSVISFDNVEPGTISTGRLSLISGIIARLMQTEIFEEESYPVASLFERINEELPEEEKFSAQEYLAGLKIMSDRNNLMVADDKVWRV

binding result: binds
B1: GST-Mcm10 (natural protein, budding yeast, UniProt P32354 1-571, looked up)
chain: MNDPREILAVDPYNNITSDEEDEQAIARELEFMERKRQALVERLKRKQEFKKPQDPNFEAIEVPQSPTKNRVKVGSHNATQQGTKFEGSNINEVRLSQLQQQPKPPASTTTYFMEKFQNAKKNEDKQIAKFESMMNARVHTFSTDEKKYVPIITNELESFSNLWVKKRYIPEDDLKRALHEIKILRLGKLFAKIRPPKFQEPEYANWATVGLISHKSDIKFTSSEKPVKFFMFTITDFQHTLDVYIFGKKGVERYYNLRLGDVIAILNPEVLPWRPSGRGNFIKSFNLRISHDFKCILEIGSSRDLGWCPIVNKKTHKKCGSPINISLHKCCDYHREVQFRGTSAKRIELNGGYALGAPTKVDSQPSLYKAKGENGFNIIKGTRKRLSEEEERLKKSSHNFTNSNSAKAFFDEKFQNPDMLANLDNKRRKIIETKKSTALSRELGKIMRRRESSGLEDKSVGERQKMKRTTESALQTGLIQRLGFDPTHGKISQVLKSSVSGSEPKNNLLGKKKTVINDLLHYKKEKVILAPSKNEWFKKRSHREEVWQKHFGSKETKETSDGSASDLEII
notes: Mcm10, budding yeast, full length PCR product in SpeI/XhoI sites of pET-41; source: cloned in pET-41 vector; not shown: GST, N-terminal, kept
